Assays:
SSB = molecular target: T1, SSB (Bacillus subtilis, UniProt P37455 1-172); test: EMSA
T1 sequence: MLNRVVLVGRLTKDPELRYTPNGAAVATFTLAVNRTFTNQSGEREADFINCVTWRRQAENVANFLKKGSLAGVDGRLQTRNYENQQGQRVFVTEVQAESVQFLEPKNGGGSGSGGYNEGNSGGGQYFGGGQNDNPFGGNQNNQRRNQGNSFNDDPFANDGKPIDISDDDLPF

DnaD = molecular target: T2, DnaD (Bacillus subtilis, UniProt P39787 1-232); test: EMSA
T2 sequence: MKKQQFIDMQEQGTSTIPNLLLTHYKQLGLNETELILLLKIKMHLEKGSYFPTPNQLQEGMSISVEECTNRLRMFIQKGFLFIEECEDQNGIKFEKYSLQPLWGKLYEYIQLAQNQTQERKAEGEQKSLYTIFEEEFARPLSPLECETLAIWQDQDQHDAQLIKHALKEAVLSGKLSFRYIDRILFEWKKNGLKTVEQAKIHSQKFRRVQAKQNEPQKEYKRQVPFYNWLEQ

TTACACAGTAACTCATATGCTTCGCTATTACGCC (ssDNA) [34mer oligonucleotide]
binding signal (SSB): 600 fold higher affinity than Cd and DnaD | binding signal (DnaD): 600 fold lower affinity than SSB
